The source of these data is publication PMC7308587.

The term stoichiometry N denotes the number of molecules, sites or subunits per partner or assembly.

In test [1] the target is PpNAGK, recombinant mature N-acetylglutamate kinase (301 residues without cTP) fused to a His-tag (Pinus pinaster (maritime pine)).
Test [2] has as its target PpPIIa, recombinant mature protein (without the chloroplast transit peptide) (Pinus pinaster (maritime pine)). The experiment in a line: SEC; ENrich SEC 650 10 x 300 column (FPLC), 250 uL of protein at 0.6 ug/uL in 25 mM Tris-HCl pH 7.5, 150 mM NaCl, 10% glycerol, room temperature, 0.75 mL/min; calibrated with protein standards; fractions checked by western blot. On the technique in general: In gel filtration, larger molecules generally elute earlier.

The target of test [3] is PpPIIb, recombinant mature protein (without the chloroplast transit peptide) (Pinus pinaster (maritime pine)). Described as above.

Take “PpPIIa, recombinant mature protein (without the chloroplast transit peptide) (natural protein)”: the PpNAGK enzyme activity (N-acetylglutamylhydroxamate assay) with increasing amounts of PpPIIa mixed with 0.65 ug PpNAGK in test [1] is 5 fold. In test [2], the stoichiometry N was 3.

Take “PpPIIb, recombinant mature protein (without the chloroplast transit peptide) (natural protein)”: in test [1], the PpNAGK enzyme activity (N-acetylglutamylhydroxamate assay) with increasing amounts of PpPIIb mixed with 0.65 ug PpNAGK stood at 5 fold. Also, in test [3], the stoichiometry N is 3.
